Measured values reported in patent publication US9382305B2, “Relaxin fusion polypeptides and uses thereof” (BAYER INTELLECTUAL PROPERTY GMBH, priority 2011, dated 2016).

Experiments:
[1] = target: T1, human LGR7/RXFP1 receptor (Homo sapiens, UniProt Q9HBX9); assay: Relaxin activity of plasma samples from scR-Fc 13 treated rats on CHO-CRE-LGR7 cell line; assay type: cell-based; details: plasma 3, 5 and 7 days after intravenous administration to rats
T1 construct: cloned as 2271 base pair long DNA fragment; expressed in transfected cells; host or cells: CHO K1 (ATCC CCL-61) with CRE-luciferase reporter; receptor in pcDNA3.1(-)
T1 sequence (Q9HBX9 1-757): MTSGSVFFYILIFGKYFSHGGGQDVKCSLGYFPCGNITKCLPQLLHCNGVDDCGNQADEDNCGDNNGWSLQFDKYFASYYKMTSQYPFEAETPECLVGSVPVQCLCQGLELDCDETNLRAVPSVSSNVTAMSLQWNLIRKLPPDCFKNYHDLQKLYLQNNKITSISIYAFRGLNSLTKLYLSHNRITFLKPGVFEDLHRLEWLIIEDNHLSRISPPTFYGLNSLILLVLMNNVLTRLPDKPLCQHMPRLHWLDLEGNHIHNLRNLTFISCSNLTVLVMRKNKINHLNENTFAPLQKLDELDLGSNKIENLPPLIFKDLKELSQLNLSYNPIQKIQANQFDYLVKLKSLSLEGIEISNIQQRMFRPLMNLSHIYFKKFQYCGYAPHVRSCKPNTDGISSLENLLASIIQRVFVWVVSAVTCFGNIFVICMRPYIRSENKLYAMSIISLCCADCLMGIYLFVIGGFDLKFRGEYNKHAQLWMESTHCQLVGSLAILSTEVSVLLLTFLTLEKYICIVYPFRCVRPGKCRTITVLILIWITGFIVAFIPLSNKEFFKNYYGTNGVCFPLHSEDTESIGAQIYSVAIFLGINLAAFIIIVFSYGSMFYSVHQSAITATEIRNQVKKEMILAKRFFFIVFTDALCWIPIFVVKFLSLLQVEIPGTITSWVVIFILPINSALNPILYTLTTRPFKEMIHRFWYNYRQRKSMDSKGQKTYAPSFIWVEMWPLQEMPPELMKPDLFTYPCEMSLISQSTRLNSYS
Protocol: Relaxin activity in blood samples obtained from scR-Fc 13 treated rats by using the CHO-CRE-LGR7 cell line was determined. Blood samples collected 3, 5, and 7 days after intravenous administration of scR-Fc 13 were incubated on the CHO-CRE-LGR7 cell line and Relative Lights Units were determined. Calibration curves were determined using hRelaxin 2 (R&D Systems, catalogue number 6586-RN-025) and purified scR-Fc 13. The EC50 within the dose response curve is marked by an X. Data are expressed as Relative Light Units, representing the activity of scR-Fc variants and hRelaxin 2 induced luciferase expression. Symbols represent means, error bars represent S.E.M.

[2] = test system: isolated perfused rat heart; assay: Isolated perfused rat heart (Langendorff); parameters: species or system Wistar rats
Protocol: Male Wistar rats (200-250 g) were anesthetized using Narcoren (100 mg/kg i.p.). The heart was rapidly excised and connected to a Langendorff perfusion system (FMI GmbH, Seeheim-Ober Beerbach, Germany). The heart was perfused at a constant rate of 10 ml/min with Krebs-Henseleit bicarbonate buffer solution equilibrated with 95% O2-5% CO2. The perfusion solution contained (in mmol/l): NaCl 118; KCl 3; NaHCO3 22; KH2PO41,2; MgSO4 1,2; CaCl2 1,8; Glucose 10; Na-Pyruvat 2. A pressure transducer registered the perfusion pressure in the perfusion system. The left ventricular pressure (LVP) was measured using a second pressure transducer connected to a water-filled balloon which was inserted into the left ventricle via the left atrium. The end diastolic pressure was initially set to 8 mm Hg by adjusting the volume of the balloon. The hearts were spontaneously beating. The signals from the pressure transducer were amplified, registered and used for the calculation of the heart frequency and +dp/dt by a personal computer.

B1: scR-Fc 13: rat IgG2b Fc (6 Histidine tag) linked via GlyGlySerGlyGlySerGlyGlySerPro to N terminal end of scR4; SEQ ID NO: 28 (protein)
chain: HHHHHHPTCPTCHKCPVPELLGGPSVFIFPPKPKDILLISQNAKVTCVVVDVSEEEPDVQFSWFVNNVEVHTAQTQPREEQYNSTFRVVSALPIQHQDWMSGKEFKCKVNNKALPSPIEKTISKPKGLVRKPQVYVMGPPTEQLTEQTVSLTCLTSGFLPNDIGVEWTSNGHIEKNYKNTEPVMDSDGSFFMYSKLNVERSRWDSRAPFVCSVVHEGLHNHHVEKSISRPPGKGGSGGSGGSPQLYSALANKCCHVGCTKRSLARFCGGGSGGGSGSWMEEVIKLCGRELVRAQIAICGMSTWS
activity of plasma samples [1]: activity could be determined | coronary flow ([2]; perfusion, FIG. 11): significant increase | heart rate ([2]; perfusion, FIG. 11): significant increase | left ventricular diastolic pressure ([2]; perfusion, FIG. 11): decrease | left ventricular pressure (+dp/dtmax) ([2]; perfusion, FIG. 11): decrease | effects on heart rate, coronary flow and contractility compared with hRelaxin 2 ([2]; ten fold higher concentration than hRelaxin 2 (1 nM)): Comparable effects
